Measurements taken from the supplement of paper PMC7877785.
± gives the uncertainty stated by the source.

Assay: self-splicing fitness, log relative to wild type (ln ratio); higher = more splicing; Tetrahymena group I intron in knt gene, E. coli kanamycin selection, DiMSum; sequences stand for … in CUCUCU…GGAGGGAAAAGUUAUCAGGCAUGCACCUGGUAGCUAGUCUUUAAACCAAUAGAUUGCAUCGGUUUAAAAGGCAAGACCGUCAAAUUGCGGGAAAGGGGUCAACAGCCGUUCAGUACCAAGUCUCAGGGGAAACUUUGAGAUGGCCUUGCAAAGGGUAUGGUAAUAAGCUGACGGACAUGGUCCUAACCACGCAGCCAAGUCCUAAGUCAACAGAUCUUCUGUUGAUAUGGAUGCAGUUCACAGACUAAAUGUCGGUCGGGGAAGAUGUAUUCUUCUCAUAAGAUAUAGUCGGACCUCUCCUUAAUGGGAGCUAGCGGAUGAAGUGAUGCAACACUGGAGCCGCUGGGAACUAAUUUGUAUGCGAAAGUAUAUUGAUUAGUUUUGGAGUACUCGUGGUCG
Method in brief: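 A randomised library covering all eight P1ex-region intron nucleotides was built with the intron in the knt kanamycin-resistance gene on pET-22b(+) and held in E. coli BL21(DE3). Cells were grown overnight at 37°C or 30°C on LB agar, with or without 25 μg/mL kanamycin, plus 100 μg/mL carbenicillin, 50 μM IPTG and 0.2% rhamnose, and pooled colonies were amplicon-sequenced on an Illumina HiSeq 2500. DiMSum fitness is the error-weighted combination of wild-type-normalised replicate fold changes, kanamycin versus none.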

Sequence	self-splicing fitness (ln) (30 °C)	self-splicing fitness (ln) (37 °C)
UACUAGCAAUAUUACGUGCG	-0.684 ± 0.08	-1.31 ± 0.1
UACUAGCAAUAUUACGUGGU	-2.87 ± 0.14	-2.75 ± 0.17
UAGAAGCAAUAUUACGAACC	-2.02 ± 0.24	-0.44 ± 0.3
UAGAAGCAAUAUUACGAAGU	-3.7 ± 0.4	-1.17 ± 0.22
UAGAAGCAAUAUUACGACAC	-1.77 ± 0.43	-2.07 ± 0.25
UAGAAGCAAUAUUACGAGAU	-3.64 ± 0.33	-2.16 ± 0.23
UAGAAGCAAUAUUACGAGUC	-2.76 ± 0.39	-2.02 ± 0.33
UAGAAGCAAUAUUACGAUCC	-2.25 ± 0.23	-1.45 ± 0.3
UAGAAGCAAUAUUACGCAUA	-1.55 ± 0.17	-1.36 ± 0.12
UAGAAGCAAUAUUACGCCCA	-0.128 ± 0.15	0.21 ± 0.25
UAGAAGCAAUAUUACGCCCC	-3.03 ± 0.2	-1.63 ± 0.23
UAGAAGCAAUAUUACGCCUU	-1.03 ± 0.22	-1.38 ± 0.26
UAGAAGCAAUAUUACGCGAU	-2.95 ± 0.41	
UAGAAGCAAUAUUACGCGCC	-3.18 ± 0.24	-0.65 ± 0.13
UAGAAGCAAUAUUACGCGCG	-0.301 ± 0.12	-0.204 ± 0.13
UAGAAGCAAUAUUACGCUAU	-4.05 ± 0.27	-3.13 ± 0.27
UAGAAGCAAUAUUACGCUCG	-1.06 ± 0.13	-0.333 ± 0.12
UAGAAGCAAUAUUACGGAAC	-1.25 ± 0.34	
UAGAAGCAAUAUUACGGCAU	-1.96 ± 0.12	-0.323 ± 0.094
UAGAAGCAAUAUUACGGCUG	-0.338 ± 0.11	0.218 ± 0.15
UAGAAGCAAUAUUACGGGGG		-2.25 ± 0.45
UAGAAGCAAUAUUACGGUGA	-1.28 ± 0.12	-0.667 ± 0.12
UAGAAGCAAUAUUACGGUUU	-3.09 ± 0.17	-2.28 ± 0.16
UAGAAGCAAUAUUACGUAUG	-1.01 ± 0.07	-1.14 ± 0.11
UAGAAGCAAUAUUACGUUCC	-2.51 ± 0.19	-0.539 ± 0.17

Sequence	self-splicing fitness (ln) (30 °C)	self-splicing fitness (ln) (37 °C)
UAGCAGCAAUAUUACGAAUC	-3.68 ± 0.42	-2.03 ± 0.27
UAGCAGCAAUAUUACGACGG	-0.73 ± 0.09	-0.313 ± 0.12
UAGCAGCAAUAUUACGACUU	-0.541 ± 0.098	0.107 ± 0.11
UAGCAGCAAUAUUACGAGCA	-1.48 ± 0.13	0.249 ± 0.13
UAGCAGCAAUAUUACGAUUU	-2.03 ± 0.11	-0.879 ± 0.12
UAGCAGCAAUAUUACGCAUU	-2.38 ± 0.13	-1.08 ± 0.11
UAGCAGCAAUAUUACGCGCG	-1.09 ± 0.17	0.624 ± 0.17
UAGCAGCAAUAUUACGCGCU	-2.62 ± 0.12	-1.6 ± 0.12
UAGCAGCAAUAUUACGCUAA	-2.07 ± 0.26	-1.73 ± 0.27
UAGCAGCAAUAUUACGCUAU	-3.88 ± 0.23	-3.49 ± 0.37
UAGCAGCAAUAUUACGCUCU	-1.27 ± 0.087	-1.04 ± 0.088
UAGCAGCAAUAUUACGGCCG	-0.163 ± 0.071	0.0112 ± 0.085
UAGCAGCAAUAUUACGUACU	-1.74 ± 0.1	-0.434 ± 0.1
UAGCAGCAAUAUUACGUAGU	-2.15 ± 0.14	-2.48 ± 0.31
UAGCAGCAAUAUUACGUAUA	-1.89 ± 0.096	-0.924 ± 0.12
UAGCAGCAAUAUUACGUAUG	-1.13 ± 0.061	-0.563 ± 0.084
UAGCAGCAAUAUUACGUCAA	-1.79 ± 0.12	-1.21 ± 0.11
UAGCAGCAAUAUUACGUCCG	-0.746 ± 0.055	0.357 ± 0.08
UAGCAGCAAUAUUACGUUGC	-2.57 ± 0.21	-1.91 ± 0.21
UAGGAGCAAUAUUACGACGG	-2.88 ± 0.13	-0.471 ± 0.12
UAGGAGCAAUAUUACGAGUA	-2.81 ± 0.24	-1.93 ± 0.22
UAGGAGCAAUAUUACGCCAA	-3.23 ± 0.4	-2.13 ± 0.42
UAGGAGCAAUAUUACGCCGA	-2.76 ± 0.21	-0.577 ± 0.27
UAGGAGCAAUAUUACGCGUU	-4.38 ± 0.24	-1.37 ± 0.14
UAGGAGCAAUAUUACGCUAC		0.223 ± 0.43

Sequence	self-splicing fitness (ln) (30 °C)	self-splicing fitness (ln) (37 °C)
UAGGAGCAAUAUUACGCUUG	-1.18 ± 0.32	0.65 ± 0.36
UAGGAGCAAUAUUACGGCGC	-1.76 ± 0.36	-2.54 ± 0.41
UAGGAGCAAUAUUACGGCGU	-3.14 ± 0.24	-1.43 ± 0.28
UAGGAGCAAUAUUACGGGGU	-3.84 ± 0.4	-2.12 ± 0.35
UAGGAGCAAUAUUACGGUCA	-2.65 ± 0.47	-2.19 ± 0.26
UAGGAGCAAUAUUACGGUUU	-3.54 ± 0.3	-3.45 ± 0.39
UAGGAGCAAUAUUACGUAGG	-3.28 ± 0.2	-1.15 ± 0.18
UAGGAGCAAUAUUACGUCAA		-2.27 ± 0.46
UAGGAGCAAUAUUACGUCGA	-3.16 ± 0.2	-1.55 ± 0.21
UAGGAGCAAUAUUACGUCUG	-0.473 ± 0.13	0.629 ± 0.15
UAGGAGCAAUAUUACGUGAA	-1.66 ± 0.34	-1.93 ± 0.34
UAGGAGCAAUAUUACGUGAC	-3 ± 0.23	
UAGGAGCAAUAUUACGUGGC		-0.624 ± 0.36
UAGGAGCAAUAUUACGUUGG		-1.27 ± 0.28
UAGUAGCAAUAUUACGAAUG	-2.77 ± 0.16	-0.412 ± 0.13
UAGUAGCAAUAUUACGAGGU	-2.28 ± 0.36	
UAGUAGCAAUAUUACGAUCU	-1.22 ± 0.11	-0.472 ± 0.13
UAGUAGCAAUAUUACGCAUC	-2.64 ± 0.28	
UAGUAGCAAUAUUACGCGAC		-1.69 ± 0.29
UAGUAGCAAUAUUACGCUCA	-0.29 ± 0.13	0.69 ± 0.15
UAGUAGCAAUAUUACGGAUU	-4.06 ± 0.47	-0.834 ± 0.18
UAGUAGCAAUAUUACGGCCU	-0.563 ± 0.15	-0.218 ± 0.24
UAGUAGCAAUAUUACGGGUA	-1.99 ± 0.12	-0.398 ± 0.097
UAGUAGCAAUAUUACGGUAA	-2.68 ± 0.3	-2.18 ± 0.29
UAGUAGCAAUAUUACGGUGC	-3.13 ± 0.17	-2.39 ± 0.19

Sequence	self-splicing fitness (ln) (30 °C)	self-splicing fitness (ln) (37 °C)
UAGUAGCAAUAUUACGGUGU	-3.57 ± 0.32	-3.21 ± 0.4
UAGUAGCAAUAUUACGUAAG	-4.17 ± 0.46	-1.11 ± 0.23
UAGUAGCAAUAUUACGUAGA	-3.53 ± 0.24	-1.93 ± 0.17
UAUAAGCAAUAUUACGACUG	0.143 ± 0.076	0.22 ± 0.098
UAUAAGCAAUAUUACGAGCG	-0.0858 ± 0.098	-0.062 ± 0.1
UAUAAGCAAUAUUACGAGGA	-2.44 ± 0.42	
UAUAAGCAAUAUUACGAUCC		-2.05 ± 0.37
UAUAAGCAAUAUUACGAUGG	-1.62 ± 0.13	-1.48 ± 0.2
UAUAAGCAAUAUUACGCGAU	-3.6 ± 0.21	-3.37 ± 0.22
UAUAAGCAAUAUUACGGACU	-2.12 ± 0.11	-0.796 ± 0.11
UAUAAGCAAUAUUACGGAGA	-3.11 ± 0.36	-2.33 ± 0.46
UAUAAGCAAUAUUACGGCCG	0.336 ± 0.23	0.0314 ± 0.26
UAUAAGCAAUAUUACGGCUC	-1.1 ± 0.17	-0.161 ± 0.2
UAUAAGCAAUAUUACGGCUG	0.381 ± 0.13	0.0603 ± 0.14
UAUAAGCAAUAUUACGGUAC	-3.46 ± 0.3	-2.23 ± 0.29
UAUAAGCAAUAUUACGGUCG	-0.167 ± 0.097	-0.128 ± 0.12
UAUAAGCAAUAUUACGGUUC	-3.49 ± 0.37	-1.05 ± 0.33
UAUAAGCAAUAUUACGUAUA	-2.77 ± 0.21	-0.986 ± 0.17
UAUAAGCAAUAUUACGUUCU	-1.03 ± 0.14	-1.41 ± 0.2
UAUAAGCAAUAUUACGUUGC	-3.02 ± 0.3	
UAUCAGCAAUAUUACGAAGU	-2.82 ± 0.28	-0.868 ± 0.29
UAUCAGCAAUAUUACGAAUA	-0.934 ± 0.18	-0.486 ± 0.11
UAUCAGCAAUAUUACGACCA	-0.0276 ± 0.12	0.439 ± 0.16
UAUCAGCAAUAUUACGACCC	-1.87 ± 0.15	-1.71 ± 0.18
